Measurements reported in PMC2859563.

T1: SmcR (Vibrio vulnificus, UniProt Q9L8G8 1-205)
T1 sequence: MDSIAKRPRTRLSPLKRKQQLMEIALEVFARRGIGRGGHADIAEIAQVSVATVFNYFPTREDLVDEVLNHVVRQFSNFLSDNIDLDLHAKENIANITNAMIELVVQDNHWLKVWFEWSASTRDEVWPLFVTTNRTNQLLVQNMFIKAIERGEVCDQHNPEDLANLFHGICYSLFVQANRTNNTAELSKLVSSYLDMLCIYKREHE


Target: T1, SmcR
Assay: ITC

Binder	Kd [µM]
PvvpE-mod (dsDNA) DNA 1: TTCTTATTGATAAATTTGTGAATAAAA DNA 2: TTTTATTCACAAATTTATCAATAAGAA	0.076
PvvpE (dsDNA) DNA 1: ATCTTATTGATAAATCTGCGTAAAAAA DNA 2: TTTTTTACGCAGATTTATCAATAAGAT	2.8
